In patent US7294706:

Columns and labels:
[1] = biological target: FGFR2 over-expressed on CHO cells (CHO-FGFR2) and on 32D cells (32D-FGFR2) (UniProt P21803); assay: competition of unlabeled protein with 125I-FGF4 (Gly79-Leu206) for CHO-FGFR2 cells, +heparin
[2] = biological target: FGFR2 over-expressed on CHO cells (CHO-FGFR2) and on 32D cells (32D-FGFR2) (UniProt P21803); assay: cell-based or functional assay

Row | Binder | IC50 mutant/IC50 wild-type (ratio (IC50 mutant/IC50 wild-type)) [1] | DNA Synthesis NIH 3T3 cells (ED50 mutant/ED50 wild-type), +heparin (ratio ED50 mutant/ED50 wild-type) [2] | DNA Synthesis NIH 3T3 cells (ED50 mutant/ED50 wild-type), -heparin (ratio ED50 mutant/ED50 wild-type) [2]
1 | FGF4 (Gly79-Leu206) F151A (ligand) GIKRLRRLYCNVGIGFHLQALPDGRIGGAHADTRDSLLELSPVERGVVSIFGVASRFFVAMSSKGKLYGSPFATDECTFKEILLPNNYNAYESYKYPGMFIALGKNGKTKKGNRVSPTMKVTHFLPRL | 2.5 | – | –
2 | FGF4 (Gly79-Leu206) F129A (ligand) GIKRLRRLYCNVGIGFHLQALPDGRIGGAHADTRDSLLELSPVERGVVSIAGVASRFFVAMSSKGKLYGSPFFTDECTFKEILLPNNYNAYESYKYPGMFIALGKNGKTKKGNRVSPTMKVTHFLPRL | > 100 | > 500 | > 500
3 | FGF4 (Gly79-Leu206) E159A (ligand) GIKRLRRLYCNVGIGFHLQALPDGRIGGAHADTRDSLLELSPVERGVVSIFGVASRFFVAMSSKGKLYGSPFFTDECTFKAILLPNNYNAYESYKYPGMFIALGKNGKTKKGNRVSPTMKVTHFLPRL | 5 | – | –
4 | FGF4 (Gly79-Leu206) E117A (ligand) GIKRLRRLYCNVGIGFHLQALPDGRIGGAHADTRDSLLALSPVERGVVSIFGVASRFFVAMSSKGKLYGSPFFTDECTFKEILLPNNYNAYESYKYPGMFIALGKNGKTKKGNRVSPTMKVTHFLPRL | 7 | – | –
5 | FGF4 (Gly79-Leu206) H201A (ligand) GIKRLRRLYCNVGIGFHLQALPDGRIGGAHADTRDSLLELSPVERGVVSIFGVASRFFVAMSSKGKLYGSPFFTDECTFKEILLPNNYNAYESYKYPGMFIALGKNGKTKKGNRVSPTMKVTAFLPRL | > 1000 | – | –

Second part, the binder after the results:

Row | IC50 mutant/IC50 wild-type (ratio (IC50 mutant/IC50 wild-type)) [1] | DNA Synthesis NIH 3T3 cells (ED50 mutant/ED50 wild-type), +heparin (ratio ED50 mutant/ED50 wild-type) [2] | DNA Synthesis NIH 3T3 cells (ED50 mutant/ED50 wild-type), -heparin (ratio ED50 mutant/ED50 wild-type) [2] | Binder
6 | > 100 | 500 | > 500 | FGF4 (Gly79-Leu206) Y87A (ligand) GIKRLRRLACNVGIGFHLQALPDGRIGGAHADTRDSLLELSPVERGVVSIFGVASRFFVAMSSKGKLYGSPFFTDECTFKEILLPNNYNAYESYKYPGMFIALGKNGKTKKGNRVSPTMKVTHFLPRL
7 | > 100 | > 500 | > 500 | FGF4 (Gly79-Leu206) L203A (ligand) GIKRLRRLYCNVGIGFHLQALPDGRIGGAHADTRDSLLELSPVERGVVSIFGVASRFFVAMSSKGKLYGSPFFTDECTFKEILLPNNYNAYESYKYPGMFIALGKNGKTKKGNRVSPTMKVTHFAPRL
8 | > 100 | > 500 | 500 | FGF4 (Gly79-Leu206) Y166A (ligand) GIKRLRRLYCNVGIGFHLQALPDGRIGGAHADTRDSLLELSPVERGVVSIFGVASRFFVAMSSKGKLYGSPFFTDECTFKEILLPNNANAYESYKYPGMFIALGKNGKTKKGNRVSPTMKVTHFLPRL
9 | > 1000 | – | – | FGF4 (Gly79-Leu206) L162A (ligand) GIKRLRRLYCNVGIGFHLQALPDGRIGGAHADTRDSLLELSPVERGVVSIFGVASRFFVAMSSKGKLYGSPFFTDECTFKEILAPNNYNAYESYKYPGMFIALGKNGKTKKGNRVSPTMKVTHFLPRL
10 | 1 | – | – | N-terminal truncated wild-type FGF4 (Gly79-Leu206) (ligand) GIKRLRRLYCNVGIGFHLQALPDGRIGGAHADTRDSLLELSPVERGVVSIFGVASRFFVAMSSKGKLYGSPFFTDECTFKEILLPNNYNAYESYKYPGMFIALGKNGKTKKGNRVSPTMKVTHFLPRL
11 | 2.5 | 2.5 | 25 | FGF4 (Gly79-Leu206) R205A (ligand) GIKRLRRLYCNVGIGFHLQALPDGRIGGAHADTRDSLLELSPVERGVVSIFGVASRFFVAMSSKGKLYGSPFFTDECTFKEILLPNNYNAYESYKYPGMFIALGKNGKTKKGNRVSPTMKVTHFLPAL
